{"source": "patent US11504432B2", "about": "“Delivery system for targeted delivery of a therapeutically active payload” (TECHNISCHE UNIVERSITÄT DRESDEN, priority 2016, dated 2022)", "molecules": {"B1": {"name": "scFv(MR1.1): EGFRvIII-specific single chain fragment variable from the literature [30, 31] (protein)", "scFv": "QVKLQQSGGGLVKPGASLKLSCVTSGFTFRKFGMSWVRQTSDKRLEWVASISTGGYNTYYSDNVKGRFTISRENAKNTLYLQMSSLKSEDTALYYCTRGYSPYSYAMDYWGQGTTVTVSSSGGGSGGGGSGGGGSDIELTQSPASLSVATGEKATIRCMTSTDIDDDMNWYQQKPGEPPKFLISEGNTLRPGVPSRFSSSGTGTDFVFTIENTLSEDVGDYYCLQSWNVPLTFGDGTKLEIT", "modifications": "left off: small tags and cut ends"}, "B2": {"name": "scFv(h-AM1): humanized PSCA-specific scFv with c-Myc-Tag, Bio-Tag BAP and His6, SEQ ID NO: 2 (protein)", "scFv": "METDTLLLWVLLLWVPGSTGDAAQPARRARRTKLGTELGSEVQLLESGGGLVQPGGSLRLSCVASGFTFSSYTMSWVRQAPGKGLEWVSYIHNGGGHTYYADSVKGRFTISRDNSKNTLYLQMNSLRAEDTAVYYCTRRMYYGNSHWYFDVWGAGTRVTITSAKTTPPSVYGGGGSGGGGSGGGGSTNSDIQMTQSPSSLSASVGDRVTITCRTSQSISNYLNWYQQKPGKAPKLLIYYTLKLNSGVPSRFSGSGSGTDFTLTISSLQPEDFATYYCQQSKTLPWTFGGGTKLEIKRADAAPTVSGPEQKLISEEDLNSAVDMSGLNDIFEAQKIEWHEGAPSSHHHHHH", "modifications": "Humanized antibody"}, "B3": {"name": "scFv(AM1): murine 7F5-derived single chain antibody fragment specific for prostate stem cell antigen (PSCA) (protein, listed as Mus musculus)", "scFv": "METDTLLLWVLLLWVPGSTGDAAQPARRARRTKLGTELGSQVKLQESGGGLVQPGGSLKLSCVASGFTFSSYTMSWVRRTPEKRLEWVAYIHNGGGHTYYPDTIKGRFTISRDNAKNTLFLEMSSLKSEDTAMYYCTRRMYYGNSHWYFDVWGAGTSVTVSSAKTTPPSVYGGGGSGGGGSGGGGSTNSDIVMTQSPSSLSASLGDRVTINCRTSQDISNYLNWYQLTPDGTVKLLIYYTLKLNSGVPSRFSGSGSGTDYSLTINNLEKEDFATYFCQQSKTLPWTFGGGTKLEIKRADAAPTVSGPKLSSKLKVTVNGTAYDVDVDVDKSHENPMGTILFGGGTGGAPAPAAGGAGAGKAGEGEIPAPLAGTVSKILVKEGDTVKAGQTVLVLEAMKMETEINAPTDGKVEKVLVKERDAVQGGQGLIKIGDLELIEGSSGPEQKLISEEDLNSAVDHHHHHH"}, "B4": {"name": "scFv(AM1)-P-BAP: scFv(AM1) fused to PSTCD biotin acceptor peptide, SEQ ID NO: 1 (protein, listed as Mus musculus)", "scFv": "METDTLLLWVLLLWVPGSTGDAAQPARRARRTKLGTELGSQVKLQESGGGLVQPGGSLKLSCVASGFTFSSYTMSWVRRTPEKRLEWVAYIHNGGGHTYYPDTIKGRFTISRDNAKNTLFLEMSSLKSEDTAMYYCTRRMYYGNSHWYFDVWGAGTSVTVSSAKTTPPSVYGGGGSGGGGSGGGGSTNSDIVMTQSPSSLSASLGDRVTINCRTSQDISNYLNWYQLTPDGTVKLLIYYTLKLNSGVPSRFSGSGSGTDYSLTINNLEKEDFATYFCQQSKTLPWTFGGGTKLEIKRADAAPTVSGPKLSSKLKVTVNGTAYDVDVDVDKSHENPMGTILFGGGTGGAPAPAAGGAGAGKAGEGEIPAPLAGTVSKILVKEGDTVKAGQTVLVLEAMKMETEINAPTDGKVEKVLVKERDAVQGGQGLIKIGDLELIEGSSGPEQKLISEEDLNSAVDHHHHHH"}, "B5": {"name": "scFv(MR1.1)-P-BAP: scFv(MR1.1) fused to PSTCD biotin acceptor peptide, SEQ ID NO: 3 (protein)", "scFv": "METDTLLLWVLLLWVPGSTGDAAQPARRARRTKLGTELGSHMQVKLQQSGGGLVKPGASLKLSCVTSGFTFRKFGMSWVRQTSDKRLEWVASISTGGYNTYYSDNVKGRFTISRENAKNTLYLQMSSLKSEDTALYYCTRGYSPYSYAMDYWGQGTTVTVSSSGGGSGGGGSGGGGSDIELTQSPASLSVATGEKATIRCMTSTDIDDDMNWYQQKPGEPPKFLISEGNTLRPGVPSRFSSSGTGTDFVFTIENTLSEDVGDYYCLQSWNVPLTFGDGTKLEITKLSSKLKVTVNGTAYDVDVDVDKSHENPMGTILFGGGTGGAPAPAAGGAGAGKAGEGEIPAPLAGTVSKILVKEGDTVKAGQTVLVLEAMKMETEINAPTDGKVEKVLVKERDAVQGGQGLIKIGDLELIEGSSGPEQKLISEEDLNSAVDHHHHHH", "modifications": "Single chain antibody fragment"}}, "key": {"[1]": {"tested_on": "293T^EGFRvIII/c-Luc cells", "assay": "Luciferase knockdown by scFv-P-BAP guided polyplexes", "type": "cell-based", "conditions": "inhibitor added 4 h prior transfection", "method": "As positive RNAi control, cells were transfected with siLuc3 using the transfection reagent Interferin®. For investigating the route of internalization, endocytose inhibitors 0.6 μg/ml filipin III and 6 μg/ml chlorpromazine (both Sigma Aldrich) were added 4 h prior transfection of cells."}, "[2]": {"tested_on": "293T-Blue^TLR3/PSCA reporter cells", "assay": "NFkappaB activation, SEAP reporter, PSCA-positive cells", "type": "cell-based", "method": "The target delivery of TLR3 agonist Riboxxol® to the endosomal compartment of PSCA-positive cells and the resulting NFkappaB activation and induction of apoptosis by the use of the BIC delivery system was investigated using 293T-Blue^TLR3/PSCA reporter cells. 50.000 293T-Blue^TLR3/PSCA cells in 200 μl HEKBlue detection medium were plated in 96 well plates and treated with increasing concentrations of BICs containing RIBOXXOL® and scFv(h-AM1)-BAP or were treated with BICs containing Riboxxol® and scFv(MR1.1)-BAP, which should not bind to the PSCA-positive target cells. The induced secretion of the reporter SEAP, or its enzymatic activity in HEK Blue medium was measured at 655 nm in an ELISA reader after 24 h. […] […] A plateau of activation is reached at a concentration of the anti-PSCA immunoconjugate at 25 nM. […] Apoptosis levels of treated cells were normalized to untreated 293T-Blue^TLR3/PSCA cells by subtracting basal apoptosis levels from induced apoptosis-levels in the treatment groups."}, "[3]": {"target": "wild type EGFR (Homo sapiens, UniProt P00533)", "conditions": "cited from earlier work"}, "[4]": {"tested_on": "293T^EGFRvIII cells", "assay": "EGFRvIII receptor internalization, FACS", "type": "cell-based", "conditions": "crosslinking with scFv plus anti-myc-antibodies, 2 h to 48 h", "method": "(§1) For studies of EGFRvIII and PSCA internalization, 293T^EGFRvIII and 293T^PSCA cells, respectively, were carefully detached with Trypsin/EDTA solution (Sigma/Aldrich). After repeated washing in 1 mg/ml BSA/PBS, 2×10^5 cells were fed with fresh medium and plated in 96 round bottom wells. Crosslinking of receptors was accomplished by incubation with 1 μg parental scFv specific for the cognate receptor for 1 h at 4° C. followed by extensive washing with PBS and treatment with 0.5 μg of biotin-labelled anti-myc antibody (Miltenyi Biotech) for 10 min at 4° C., followed by extensive washing with PBS and feeding with fresh medium. To achieve a monovalent binding of receptors, the 293T^EGFRvIII and 293T^PSCA cells were incubated only with scFv(MR1.1) and scFv(AM1), respectively, for 1 h at 4° C., followed by extensive washing with PBS and feeding with fresh medium. EGFRvIII surface expression was monitored after incubation at 37° C. in a humidified CO2 incubator after 2 h, 4 h, 8 h, 24 h, and 48 h utilizing an anti-biotin-PE antibody (Miltenyi Biotech) for the crosslinked receptors and incubation of biotinylated anti-myc antibody for 10 min at 4° C. followed by anti-biotin-PE antibody staining for 10 min at 4° C., for cells with monovalent binding of receptors. All obtained data were analyzed by FlowJo software version 7.6.5 (TreeStar Inc., Ashland, USA)."}, "[5]": {"tested_on": "tumors", "conditions": "in vivo; cited from earlier work"}, "[6]": {"target": "EGFRvIII neo-epitope (Homo sapiens, UniProt P00533, DELINS30-297G)", "conditions": "cited from earlier work"}, "[7]": {"tested_on": "293T^PSCA cells", "assay": "PSCA receptor internalization, FACS", "type": "cell-based", "conditions": "crosslinking with scFv plus anti-myc-antibodies, 2 h to 48 h", "method": "as §1"}, "[8]": {"target": "T1, PSCA (Homo sapiens, UniProt O43653)", "T1 construct": "expressed in transfected cells; host or cells: 293T^PSCA cells", "T1 sequence (O43653 12-83)": "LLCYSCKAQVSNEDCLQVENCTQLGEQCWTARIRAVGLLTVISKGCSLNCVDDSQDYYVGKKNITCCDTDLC", "assay": "Binding affinity (KD) by flow cytometry on 293T^PSCA cells", "conditions": "FIG. 9", "method": "For determination of binding affinity, murine scFv(AM1) and the humanized scFv(h-AM1) were incubated in descending concentrations with 293T^PSCA cells. After detection with a secondary anti-myc-PE-antibody the MFIs were determined using a MACSQuant Cytometer (Miltenyi Biotech) and FlowJo software and the Kd values were calculated with the PRISM software program. FIG. 9 depicts the graphs for the KD value calculations."}, "[9]": {"target": "T2, EGFRvIII (Homo sapiens, UniProt P00533, DELINS30-297G)", "T2 construct": "expressed in transfected cells; host or cells: 293T cells with ectopic EGFRvIII (293T^EGFRvIII)", "assay": "Flow cytometry binding of scFvs to 293T^EGFRvIII cells", "conditions": "1 μg scFv", "method": "To investigate scFv(MR1.1)-P-BAP binding to EGFRvIII-293T target cells with ectopic expression of the cognate surface receptor, 2×10^5 cells were incubated with 1 μg of recombinant scFv and scFv-P-BAPs, respectively. The bound antibodies were detected either via their myc-epitope using anti-myc/FITC antibody or via their biotin residue using anti-biotin/PE antibody (1:10; Miltenyi Biotec, Bergisch Gladbach, Germany). Cells stained only with secondary antibody were included as a control. […] At least 10,000 stained cells were measured by flow cytometry (MACSQuant, Miltenyi Biotec, Bergisch Gladbach, Germany) and analyzed by FlowJo software version 7.6.5 (TreeStar Inc., Ashland, USA)."}, "[10]": {"target": "avidin (Gallus gallus, UniProt P02701)", "sequence (P02701 25-152)": "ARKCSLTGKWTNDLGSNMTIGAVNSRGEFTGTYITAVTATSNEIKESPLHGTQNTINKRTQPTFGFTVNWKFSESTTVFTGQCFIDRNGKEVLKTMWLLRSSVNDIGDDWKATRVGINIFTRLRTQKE", "assay": "Conjugation of biotinylated scFvs to avidin, Western blot", "type": "binding", "conditions": "molar ratios from 1:1 to 4:1", "method": "Conjugation of recombinant biotinylated single chain antibodies was investigated in Western blot experiments. For this 10.7 pmol of recombinant scFv-P-BAP and scFv-BAP was incubated for 30 min at RT with […] as depicted in FIG. 11c for scFv(MR1.1)-P-BAP and FIG. 12 for scFv(MR1.1)-BAP and scFv(h-AM1)-BAP. The avidin/scFv-BAP complexes were subjected to non-reducing SDS-PAGE. After protein transfer onto a Westran PVDF membrane (Whatman GmbH, Dassel, Germany), proteins were detected by a monoclonal murine c-myc-specific antibody (1:5,000, Invitrogen, Carlsbad, USA) and a HRP-labeled rabbit anti-mouse secondary antibody (1:1,000; Dako, Glostrup, Denmark), and after stripping of the membranes by a HRP-conjugated biotin-specific antibody (1:8,000; Sigma-Aldrich, St. Louis, USA). Membranes were visualized and documented using the Luminata Classico Western HRP substrate (Merck Millipore, Darmstadt, Germany) and the imaging system LAS3000 (FujiFilm Europe, Düsseldorf, Germany)."}}}
{"molecule": "CCCCC[C@@H](O)[C@H]1C(=O)O[C@H](C)[C@@H](O)/C=C/C=C/C=C/C=C/C=C(\\C)[C@@H](O)C[C@H](O)C[C@H](O)C[C@H](O)C[C@H](O)C[C@H](O)C[C@@H]1O", "note": "[filipin III, reference compound]", "values": [{"measurement": "effect of endocytosis inhibitor on delivery of EGFRvIII-specific polyplexes", "setting": "[1]", "value": "inhibited"}, {"measurement": "effect on induction of the reporter SEAP by BICs", "setting": "[2]; 0.3 μg/ml filipin III", "value": "slightly weakened induction"}]}
{"molecule": "CN(C)CCCN1c2ccccc2Sc2ccc(Cl)cc21", "note": "[chlorpromazine, reference compound]", "values": [{"measurement": "inhibition of chlatrin-mediated endocytosis of BICs", "setting": "[2]; 31 μg/ml of chlorpromazine", "value": "effectively inhibited"}]}
{"molecule": "B1", "values": [{"measurement": "cross-reaction with wild type EGFR", "setting": "[3]", "value": "does not cross-react"}, {"measurement": "EGFRvIII internalization", "setting": "[4]", "value": "time-dependent"}, {"measurement": "retention in tumors", "setting": "[5]", "value": "excellent retention"}, {"measurement": "affinity to EGFRvIII neo-epitope", "setting": "[6]", "value": "high affinity"}]}
{"molecule": "B2", "values": [{"measurement": "PSCA internalization", "setting": "[7]", "value": "time-dependent"}, {"measurement": "affinity to PSCA compared to parental murine scFv", "setting": "[8]", "value": "improved affinity"}]}
{"molecule": "B3", "values": [{"measurement": "binding to EGFRvIII-positive 293T^EGFRvIII cells", "setting": "[9]", "value": "did not recognize"}]}
{"molecule": "B4", "values": [{"measurement": "binding to EGFRvIII-positive 293T^EGFRvIII cells", "setting": "[9]", "value": "did not recognize"}]}
{"molecule": "B5", "values": [{"measurement": "binding to EGFRvIII-positive 293T^EGFRvIII cells", "setting": "[9]", "value": "bind"}, {"measurement": "conjugation to avidin", "setting": "[10]", "value": "efficiently conjugated"}]}
